In the RNAGym collection of RNA variant scans (doi:10.1021/acssynbio.7b00057):

B1: Pistol ribozyme (parent)
chain: GGGUCGUUGUUCCAUAAUCGCGUGGAUAUGGCACGCAAGUUUCUACCGGGCACCGUAAAUGUCCGACUGGAGCCGUUCGGGCGGCUAUAAACAGACCUCAGGCCCGAAGCGUGGCGGCACCUGCCGCCGGUGGUAAAAAAGAUCGGAAGAGCACACGUCU

Variants of: B1
Test: aptazyme ON/OFF ratio, guanine; higher = stronger switching; co-transcriptional cleavage with and without guanine

| Variant | aptazyme ON/OFF ratio |
| --- | --- |
| U7C U8G U10A U11A C12A | 1.14 |
| U7C U8G U10A U11A C12U | 1.57 |
| U7C U8G U10A U11A C12G | 1.08 |
| U7C U8G G9U U10G U11C C12U | 1.09 |
| U7C U8G G9U U10G U11C C12G | 1.18 |
| U7C U8G G9U U10G U11C C12A | 1.18 |
| U7C U8G G9U U10G U11A C12A C13G | 1.17 |
| U7C U8G G9U U10G U11A C12A C13A | 1.18 |
| U7C U8G G9U U10G U11A C12A C13U | 1.26 |
| U7C U8G G9U U10G U11C C12U C13G | 1.08 |
| U7C U8G G9U U10G U11C C12U C13A | 1.13 |
| U7C U8G G9U U10G U11C C12U C13U | 1.04 |
| U7C U8G G9U U11G C12G | 1.35 |
| U7C U8G G9U U11G C12U | 1.27 |
| U7C U8G G9U U11G C12A | 1.27 |
| U7C U8G U10C C12A C13U | 1.67 |
| U7C U8G U10C C12A C13A | 1.28 |
| U7C U8G U10C C12A C13G | 1.1 |
| U7C U8G G9U U10G U11A C13A | 1.1 |
| U7C U8G G9U U10G U11A C13G | 1.08 |
| U7C U8G G9U U10G U11A C13U | 1.12 |
| U7C U8G G9U U10G U11A C12G | 1.17 |
| U7C U8G G9U U10G U11A C12A | 1.25 |
| U7C U8G G9U U10G U11A C12U | 1.13 |

| Variant | aptazyme ON/OFF ratio |
| --- | --- |
| U7C U8G U10A C12U C13A | 1.13 |
| U7C U8G U10A C12U C13G | 1.13 |
| U7C U8G U10A C12U C13U | 1.33 |
| U7C U8G G9U U11A C12U C13A | 1.43 |
| U7C U8G G9U U11A C12U C13G | 1.24 |
| U7C U8G G9U U11A C12U C13U | 1.45 |
| U7C U8G G9U U11A C13G | 1.09 |
| U7C U8G G9U U11A C13U | 1.28 |
| U7C U8G G9U U11A C13A | 1.28 |
| U7C U8G G9U U10G U11A C12U C13G | 1.17 |
| U7C U8G G9U U10G U11A C12U C13A | 1.24 |
| U7C U8G G9U U10G U11A C12U C13U | 1.26 |
| U7C U8G U10A U11C C12A C13A | 1.14 |
| U7C U8G U10A U11C C12A C13G | 1.05 |
| U7C U8G U10A U11C C12A C13U | 1.15 |
| U7C U8G U10A U11G C12U C13U | 1.17 |
| U7C U8G U10A U11G C12U C13G | 1.08 |
| U7C U8G U10A U11G C12U C13A | 1.07 |
| U7C U8G U10A C12G | 1.18 |
| U7C U8G U10A C12U | 2.01 |
| U7C U8G U10A C12A | 1.41 |
| U7C U8G G9U U11C C12U | 1.21 |
| U7C U8G G9U U11C C12G | 1.32 |
| U7C U8G G9U U11C C12A | 1.41 |

| Variant | aptazyme ON/OFF ratio |
| --- | --- |
| U7C U8G G9U U10G U11A C12G C13G | 1.3 |
| U7C U8G G9U U10G U11A C12G C13U | 1.32 |
| U7C U8G G9U U10G U11A C12G C13A | 1.15 |
| U7C U8G G9U U10G U11C C12A C13A | 1.11 |
| U7C U8G G9U U10G U11C C12A C13U | 1.15 |
| U7C U8G G9U U10G U11C C12A C13G | 1.06 |
| U7C U8G G9U U11C C12G C13A | 1.26 |
| U7C U8G G9U U11C C12G C13G | 1.17 |
| U7C U8G G9U U11C C12G C13U | 1.35 |
| U7C U8G G9U U11A C12G C13G | 1.09 |
| U7C U8G G9U U11A C12G C13A | 1.05 |
| U7C U8G G9U U11A C12G C13U | 1.08 |
| U7C U8G G9U U10G U11G C12U C13A | 1.2 |
| U7C U8G G9U U10G U11G C12U C13U | 1.26 |
| U7C U8G G9U U10G U11G C12U C13G | 1.18 |
| U7C U8G G9U U11A C12A C13A | 1.32 |
| U7C U8G G9U U11A C12A C13G | 1.19 |
| U7C U8G G9U U11A C12A C13U | 1.21 |
| U7C U8G G9U U10G U11C C12G C13G | 1.07 |
| U7C U8G G9U U10G U11C C12G C13A | 1.03 |
| U7C U8G G9U U10G U11C C12G C13U | 1.08 |
| U7C U8G G9U U10G U11G C12A C13U | 1.19 |
| U7C U8G G9U U10G U11G C12A C13A | 1.1 |
| U7C U8G G9U U10G U11G C12A C13G | 1.05 |

| Variant | aptazyme ON/OFF ratio |
| --- | --- |
| U7C U8G U10A U11C C13A | 1.02 |
| U7C U8G U10A U11C C13G | 1.03 |
| U7C U8G U10A U11C C13U | 1.01 |
| U7C U8G G9U U11A C12G | 1.18 |
| U7C U8G G9U U11A C12A | 1.52 |
| U7C U8G G9U U11A C12U | 1.39 |
| U7C U8G G9U U10G U11G C13A | 1.23 |
| U7C U8G G9U U10G U11G C13U | 1.21 |
| U7C U8G G9U U10G U11G C13G | 1.06 |
| U7C U8G U10C C12G C13A | 1.11 |
| U7C U8G U10A U11G C12A C13U | 1.12 |
| U7C U8G U10A U11G C12A C13A | 1.12 |
| U7C U8G U10A U11G C12A C13G | 1.13 |
| U7C U8G U10A U11A C13A | 1.12 |
| U7C U8G U10A U11A C13G | 1.13 |
| U7C U8G U10A U11A C13U | 1.29 |
| U7C U8G U10A U11G C13A | 1.11 |
| U7C U8G U10A U11G C13U | 1.28 |
| U7C U8G U10A U11G C13G | 1.06 |
| U7C U8G G9U U11G | 1.2 |
| U7C U8G G9U U11C | 1.13 |
| U7C U8G G9U U11A | 1.58 |
| U7C U8G G9U U11G C12A C13A | 1.17 |
| U7C U8G G9U U11G C12A C13U | 1.21 |

| Variant | aptazyme ON/OFF ratio |
| --- | --- |
| U7C U8G G9U U11G C12A C13G | 1.24 |
| U7C U8G U10A U11C C12A | 1.13 |
| U7C U8G U10A U11C C12G | 1.18 |
| U7C U8G U10A U11C C12U | 1.04 |
| U7C U8G G9U U10G U11G C12U | 1.28 |
| U7C U8G G9U U10G U11G C12G | 1.22 |
| U7C U8G G9U U10G U11G C12A | 1.22 |
| U7C U8G G9U U11C C13G | 1.02 |
| U7C U8G G9U U11C C13U | 1.09 |
| U7C U8G G9U U11C C13A | 1.12 |
| U7C U8G G9U U11C C12A C13A | 1.31 |
| U7C U8G G9U U11C C12A C13G | 1.13 |
| U7C U8G G9U U11C C12A C13U | 1.33 |
| U7C U8G U10A U11C C12U C13G | 1.18 |
| U7C U8G U10A U11C C12U C13U | 1.06 |
| U7C U8G U10A U11C C12U C13A | 1.1 |
| U7C U8G U10A C12G C13A | 1.13 |
| U7C U8G U10A C12G C13G | 1.1 |
| U7C U8G U10A C12G C13U | 1.18 |
| U7C U8G U10A C12A C13G | 1.08 |
| U7C U8G U10A C12A C13A | 1.16 |
| U7C U8G U10A C12A C13U | 1.23 |
| U7C U8G U10A U11G C12A | 1.11 |
| U7C U8G U10A U11G C12U | 1.2 |

| Variant | aptazyme ON/OFF ratio |
| --- | --- |
| U7C U8G U10A U11G C12G | 1.23 |
| U7C U8G U10A U11G C12G C13U | 1.36 |
| U7C U8G U10A U11G C12G C13A | 1.11 |
| U7C U8G U10A U11G C12G C13G | 1.23 |
| U7C U8G G9U U11C C12U C13U | 1.32 |
| U7C U8G G9U U11C C12U C13A | 1.38 |
| U7C U8G G9U U11C C12U C13G | 1.07 |
| U7C U8G U10A U11A C12U C13A | 1.16 |
| U7C U8G U10A U11A C12U C13G | 1.12 |
| U7C U8G U10A U11A C12U C13U | 1.16 |
| U7C U8G U10A C13A | 1.15 |
| U7C U8G U10A C13U | 1.46 |
| U7C U8G U10A C13G | 1.15 |
| U7C U8G U10A U11C | 1.04 |
| U7C U8G U10A U11G | 1.35 |
| U7C U8G U10A U11A | 2.1 |
| U7C U8G U10A U11A C12G C13G | 1.13 |
| U7C U8G U10A U11A C12G C13U | 1.17 |
| U7C U8G U10A U11A C12G C13A | 1.11 |
| U7C U8G U10A U11A C12A C13A | 1.1 |
| U7C U8G U10A U11A C12A C13G | 1.12 |
| U7C U8G U10A U11A C12A C13U | 1.18 |
| U7C U8G G9U U11G C12U C13G | 1.23 |
| U7C U8G G9U U11G C12U C13A | 1.32 |

| Variant | aptazyme ON/OFF ratio |
| --- | --- |
| U7C U8G G9U U11G C12U C13U | 1.29 |
| U7C U8G G9U U10G U11C C13G | 1.14 |
| U7C U8G G9U U10G U11C C13U | 1.16 |
| U7C U8G G9U U10G U11C C13A | 1.17 |
| U7C U8G G9U U11G C13A | 1.21 |
| U7C U8G G9U U11G C13G | 1.04 |
| U7C U8G G9U U11G C13U | 1.21 |
| U7C U8G G9U U10G U11G C12G C13G | 1.24 |
| U7C U8G G9U U10G U11G C12G C13U | 1.25 |
| U7C U8G G9U U10G U11G C12G C13A | 1.15 |
| U7C U8G G9U U10G U11G | 1.18 |
| U7C U8G G9U U10G U11A | 1.13 |
| U7C U8G G9U U10G U11C | 1.07 |
| U7C U8G G9U U11G C12G C13A | 1.1 |
| U7C U8G G9U U11G C12G C13G | 1.18 |
| U7C U8G G9U U11G C12G C13U | 1.11 |
| U7C U8G U10C C12A | 2.01 |
| U7C U8G U10C C12G | 2.01 |
| U7C U8G U10A U11C C12G C13G | 1.22 |
| U7C U8G U10A U11C C12G C13U | 1.24 |
| U7C U8G U10A U11C C12G C13A | 1.14 |
| U7C U8G U10C | 1.34 |
| U7C U8G U10A | 2.08 |
